Results reported in PMC7021776, “Heme binding of transmembrane signaling proteins undergoing regulated intramembrane proteolysis” (Communications Biology, 2020).

Biological target: the molecule itself
Assay: SEC; gel filtration of purified MBP fusion proteins, Superose 6 Increase 10/300 GL, 4 °C, TN buffer (50 mM Tris/HCl pH 7.4, 150 mM NaCl) with 0.1% Triton X-100; growth medium with or without δ-aminolevulinic acid

B1: MBP-TNFα-NTF(1–76) (domain or fragment, human, UniProt P01375 1-76, looked up)
chain: MSTESMIRDVELAEEALPKKTGGPQGSRRCLFLSLFSFLIVAGATTLFCLLHFGVIGPQREEFPRDLSLISPLAQA
notes: also called TNFα-NTF(1–76) wt; MBP-TNFα(1–76); source: E. coli NEB Express (pMalC5X), membrane fraction solubilised with Triton X-100, purified (amylose); not shown: MBP, N-terminal, kept
  stoichiometry N: 3

B2: TNFα-NTF(1–51) (domain or fragment, human, UniProt P01375 1-51, looked up)
chain: MSTESMIRDVELAEEALPKKTGGPQGSRRCLFLSLFSFLIVAGATTLFCLL
notes: The text names it without MBP; source: E. coli NEB Express (pMalC5X), membrane fraction solubilised with Triton X-100, purified (amylose); not shown: MBP, N-terminal, kept
  binding result: binds

B3: TNFα-NTF(1–47) (domain or fragment, human, UniProt P01375 1-47, looked up)
chain: MSTESMIRDVELAEEALPKKTGGPQGSRRCLFLSLFSFLIVAGATTL
notes: as for B2
  stoichiometry N: 2
